Experimental data taken from the supplement of paper PMC9112550, “Optimization of the antimicrobial peptide Bac7 by deep mutational scanning” (BMC Biology, 2022).

Test system: Escherichia coli TOP10
Experiment: shrunken log2 fold change of peptide-encoding DNA abundance (4.5 h post-induction vs induction); higher = less antimicrobial activity (less host growth inhibition)
Details: time post-induction: 4.5 h; library: site-saturation at positions 5, 18, 19, 20
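Further: peptides expressed intracellularly from a pBAD plasmid library in pooled LB shake-flask culture, induced with 0.3% L-arabinose, DNA abundance read by NGS, three biological replicates, DESeq2 with apeglm shrinkage.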

| Sequence | shrunken log2 fold change |
| --- | --- |
| RRIRHRPPRLPRPRPRPMIIPRP | -0.205 |
| RRIRHRPPRLPRPRPRPMIRPRP | -0.173 |
| RRIRHRPPRLPRPRPRPMKPPRP | -0.0628 |
| RRIRHRPPRLPRPRPRPMMAPRP | 0.183 |
| RRIRHRPPRLPRPRPRPMMHPRP | 0.117 |
| RRIRHRPPRLPRPRPRPMMLPRP | -0.286 |
| RRIRHRPPRLPRPRPRPMMRPRP | 0.0201 |
| RRIRHRPPRLPRPRPRPMNKPRP | -0.329 |
| RRIRHRPPRLPRPRPRPMNMPRP | -0.00968 |
| RRIRHRPPRLPRPRPRPMRCPRP | 0.309 |
| RRIRHRPPRLPRPRPRPMYMPRP | -0.369 |
| RRIRHRPPRLPRPRPRPNASPRP | 0.0449 |
| RRIRHRPPRLPRPRPRPNCKPRP | -0.211 |
| RRIRHRPPRLPRPRPRPNCNPRP | -0.589 |
| RRIRHRPPRLPRPRPRPNCVPRP | -0.0146 |
| RRIRHRPPRLPRPRPRPNENPRP | -0.579 |
| RRIRHRPPRLPRPRPRPNGTPRP | -0.297 |
| RRIRHRPPRLPRPRPRPNIGPRP | -0.431 |
| RRIRHRPPRLPRPRPRPNIRPRP | 0.0598 |
| RRIRHRPPRLPRPRPRPNLCPRP | 0.0613 |
| RRIRHRPPRLPRPRPRPNLHPRP | -0.759 |
| RRIRHRPPRLPRPRPRPNLIPRP | -0.00121 |
| RRIRHRPPRLPRPRPRPNNCPRP | -0.0202 |
| RRIRHRPPRLPRPRPRPNNFPRP | -0.0738 |
| RRIRHRPPRLPRPRPRPNQNPRP | -0.285 |

| Sequence | shrunken log2 fold change |
| --- | --- |
| RRIRHRPPRLPRPRPRPNQYPRP | -0.663 |
| RRIRHRPPRLPRPRPRPNTIPRP | -0.903 |
| RRIRHRPPRLPRPRPRPNYMPRP | -0.0657 |
| RRIRHRPPRLPRPRPRPNYTPRP | -0.529 |
| RRIRHRPPRLPRPRPRPPCPPRP | -0.0235 |
| RRIRHRPPRLPRPRPRPPFYPRP | -0.288 |
| RRIRHRPPRLPRPRPRPPGDPRP | 0.477 |
| RRIRHRPPRLPRPRPRPPGPPRP | 0.196 |
| RRIRHRPPRLPRPRPRPPKVPRP | 0.0708 |
| RRIRHRPPRLPRPRPRPPKWPRP | 0.345 |
| RRIRHRPPRLPRPRPRPPMWPRP | 1.04 |
| RRIRHRPPRLPRPRPRPPNPPRP | 0.238 |
| RRIRHRPPRLPRPRPRPPQIPRP | -0.0667 |
| RRIRHRPPRLPRPRPRPPSVPRP | 0.241 |
| RRIRHRPPRLPRPRPRPPTYPRP | -0.0835 |
| RRIRHRPPRLPRPRPRPPYMPRP | -0.539 |
| RRIRHRPPRLPRPRPRPQAFPRP | -0.0247 |
| RRIRHRPPRLPRPRPRPQCNPRP | -0.169 |
| RRIRHRPPRLPRPRPRPQDHPRP | -0.215 |
| RRIRHRPPRLPRPRPRPQDRPRP | -0.111 |
| RRIRHRPPRLPRPRPRPQFCPRP | -0.208 |
| RRIRHRPPRLPRPRPRPQFLPRP | -0.653 |
| RRIRHRPPRLPRPRPRPQGVPRP | -0.00445 |
| RRIRHRPPRLPRPRPRPQHGPRP | 0.00949 |
| RRIRHRPPRLPRPRPRPQHQPRP | -0.192 |

| Sequence | shrunken log2 fold change |
| --- | --- |
| RRIRHRPPRLPRPRPRPQIWPRP | -0.327 |
| RRIRHRPPRLPRPRPRPQKCPRP | -0.0302 |
| RRIRHRPPRLPRPRPRPQKNPRP | -0.3 |
| RRIRHRPPRLPRPRPRPQMCPRP | -0.0203 |
| RRIRHRPPRLPRPRPRPQPFPRP | -0.213 |
| RRIRHRPPRLPRPRPRPQQPPRP | 0.176 |
| RRIRHRPPRLPRPRPRPQRGPRP | -0.0034 |
| RRIRHRPPRLPRPRPRPQRMPRP | -0.16 |
| RRIRHRPPRLPRPRPRPQSDPRP | 0.0136 |
| RRIRHRPPRLPRPRPRPQSNPRP | -0.288 |
| RRIRHRPPRLPRPRPRPQTWPRP | -0.332 |
| RRIRHRPPRLPRPRPRPQWFPRP | -0.0606 |
| RRIRHRPPRLPRPRPRPQWLPRP | 0.134 |
| RRIRHRPPRLPRPRPRPQWTPRP | -0.00992 |
| RRIRHRPPRLPRPRPRPQYGPRP | -0.0192 |
| RRIRHRPPRLPRPRPRPRARPRP | 0.814 |
| RRIRHRPPRLPRPRPRPRDDPRP | -0.0505 |
| RRIRHRPPRLPRPRPRPREAPRP | -0.0215 |
| RRIRHRPPRLPRPRPRPRESPRP | -0.0496 |
| RRIRHRPPRLPRPRPRPRFIPRP | -0.135 |
| RRIRHRPPRLPRPRPRPRGRPRP | -0.0974 |
| RRIRHRPPRLPRPRPRPRIDPRP | -0.511 |
| RRIRHRPPRLPRPRPRPRLIPRP | -0.0786 |
| RRIRHRPPRLPRPRPRPRMNPRP | -0.197 |
| RRIRHRPPRLPRPRPRPRNDPRP | -0.0937 |
